Experimental data reported in the supplement of paper PMC12764529.
± gives the half width of the 95% confidence interval.

What was measured:
[1] = folding stability dG unfold from chymotrypsin proteolysis; higher = more stable
Outline: (§1)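 Sequencing followed digestion of designed mini-proteins with trypsin and chymotrypsin, each at 11 concentrations in threefold dilutions together with a no-protease condition. The mini-proteins were under 80 residues, had no cysteine, sat in a PA-tagged cDNA display construct, and were kept only if AlphaFold2 dimer inter-PAE was above 15. From the counts, Bayesian fitting gave K50, and unfolding free energy was derived against a sequence-predicted unfolded-state K50 and a shared folded-state K50, per protease or combined.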

[2] = folding stability dG unfold from trypsin proteolysis; higher = more stable
Outline: as §1

[3] = folding stability dG unfold (combined trypsin and chymotrypsin); higher = more stable
Outline: as §1

Sequence	folding stability dG unfold [1] [kcal/mol]	folding stability dG unfold [2] [kcal/mol]	folding stability dG unfold [3] [kcal/mol]
SAGSWIDKLPPSFTSSSPLAKRPDGTRVYAYEYTTESSPSILLVEFDASGRLRKIEKLDPETAAKAIAASAG [r5_73_JUSTAS]	1.14 ± 0.071	1.19 ± 0.031	1.22 ± 0.11
SAGSYKLVVKAKAPKGPARIRVFVRLPGGEEKPVAEAEVGSGEVADIEITFPSGKPIDPKNIRVEIVPPSAG [r5_287_TrMRF]	1.65 ± 0.066	1.88 ± 0.03	1.8 ± 0.058
SAGTIRGLPAEFAKRIANELAQNGYEIVAVTVTYDPPNGTFKIEVEMRPPNGKVREHDIEIQVRLPPDDSAG [r5_985_TrROS]	2.7 ± 0.092	1.72 ± 0.057	2.45 ± 0.17
SAGTIWIPVDELKELGIPPGDTAEEFKQQISDRLMEQGWTVKIPDIEVEPLDPNDGRVWVRINIEFKPPSAG [r5_23_TrROS]	0.42 ± 0.2	1.26 ± 0.05	0.94 ± 0.17
SAGTREQVKAIAREIANEIWDTFPDMRGQKFKVKIKVEPEPNGWVRVKVTIQFPGGVQYTFPIWIPVESAGG [r19_194_TrROS]	4.4 ± 0.23	3.06 ± 0.11	4.05 ± 0.23
SAGVEELFRRLGAEVSVTRRPDGSLVVTFRLPDGRTIVVFVTPDGVRVVVVDPSGERRTLSLEDLKRLASAG [r14_578_TrMRF]	4.098 ± 0.035	3.38 ± 0.059	3.83 ± 0.058
SAGVKPTPSGKNILEIDPETGKIRFVNNNGELFELPTGNDSLDAAIKEAVEKLGYPPDTPFNIDEIKIGSAG [r5_923_TrMRF]	1.76 ± 0.065	1.46 ± 0.044	1.54 ± 0.19
SAGWIIKIYFPDKKKEIMISRFPDGQWWMVQVHDKKGEPRQTIPAGMPVDELLKDFPDAKVEVYPFEPPSAG [r5_314_TrROS]	2.59 ± 0.051	1.55 ± 0.039	2.21 ± 0.086
SAGWKIKLENIEFFPNGRIRVMFEIEDPNGRPWRVQAQFDPDNPGKIKIKVENPDNGQEQEITFTIKPPSAG [r5_345_TrROS]	4.13 ± 0.1	3.15 ± 0.18	3.83 ± 0.24
SAGWQTIDFPIPPGEDIPIPIGNRPLRIQVDPNKNKYEIFNPFLGYRISIDVDPGAGWIKITIEPLKPPSAG [r5_302_TrROS]	4.5 ± 0.15	3.34 ± 0.13	3.98 ± 0.26
SAGYIIGYPIIEELFNAGKPEEIRKILKEAVEKDPDKIIIIEVPENPEIAKAIEEAFKEEGIPLIIIPESAG [r14_236_TrMRF]	0.81 ± 0.1	1.02 ± 0.035	0.929 ± 0.065
SAGYWEFEIELPNGRKIEIEWQRMNGRYWFKIEVLDDNGKPVREVPIPFPNPEMPFEQMIKNAVKKILDSAG [r5_630_TrROS]	3.898 ± 0.032	2.44 ± 0.047	3.41 ± 0.15
SAHTWEIWFPPGLTPEEIQEKLKEEFPGYEIDVDVERDPEPGWYRIEVTMKDPQQRRRVQKKIREILQESAG [r14_443_TrROS]	2.39 ± 0.048	2.34 ± 0.12	2.4 ± 0.14
SAIEIYIYPDNWMISIEPPNPNGPEKEIMIPIDKDDLKNPEFLKEIADEIMENGIPVEADIMPPGQPIPSAG [r14_60_TrROS]	-0.0516 ± 0.13	0.857 ± 0.27	0.307 ± 0.38
SAIVIPIRVQMPPNDPDALEQAKEIADYIADMMMEEGYPFKIEVDDIEWERNPNGHWTVEIPIKIKPPPSAG [r14_48_TrROS]	1.25 ± 0.083	1.45 ± 0.18	1.38 ± 0.15
SAKEPVYLVRIRVEIYKDGKPVKELEIEVEVEEGETLEEVLERLREELEKKGYKIVKVEIEVRKLPPPESAG [r14_979_TrROS_Hall]	5.04 ± 0.15	3.35 ± 0.13	4.72 ± 0.19
SAKGTLELTFPTTKVTVEVEKVDPVNNKVYARAVFPNGFVVDAVFDPKTGKVYVEVKEVKPTKDGGYSLSAG [r14_466_TrMRF]	1.46 ± 0.11	1.24 ± 0.046	1.44 ± 0.15
SAKIEINPEGGQIEMDYELNGKKVKITIQMPPENGMFPVKIEPPDLGKPIEVPYPFNSVDDMLDWAAEASAG [r14_803_TrROS]	0.74 ± 0.13	0.488 ± 0.11	0.433 ± 0.36
SAKIKIEKKEDGTIVIEVEAESEEEAEEAVKELVKELEKKGIKVEVVEVKIEKDPEKKGKYRVTIVIKKSAG [r14_119_TrROS_Hall]	4.39 ± 0.18	2.69 ± 0.21	3.76 ± 0.33
SAKIVIIPLGDKAIIIITDENGKTKTIELPGISKIEIKGDHLKIYDPKTGKLIIPPNWKGKDIIIIPGKSAG [r14_83_TrMRF]	3.32 ± 0.59	2.25 ± 0.22	2.9 ± 0.34
SAKKENSVPVTIEIELEFDSIEKAKKAIEKLAAEIEKETGAKIEIKVEIEEKENNYIVKVELTIYLPKESAG [r14_626_TrMRF]	1.55 ± 0.051	1.6 ± 0.06	1.64 ± 0.077
